Assay results taken from article PMC6561178, “Caulobacter crescentus Hfq structure reveals a conserved mechanism of RNA annealing regulation”.
One block for each molecule: values may come before it.

Assays:
[1] = target: Caulobacter crescentus Hfq (Caulobacter crescentus); test: crystal structure; hanging-drop vapor diffusion; Cc Hfq at 7 mg/mL; 0.2 M sodium thiocyanate, 17% PEG 3350; 2.15 Å; four hexamers in the asymmetric unit, space group P4_(3)
Ec Hfq (Hfq102) [2] = target: T1, Ec Hfq (Hfq102) (Escherichia coli, UniProt P0A6X3 1-102); test: EMSA; Hill n 2.2; EMSA: 34 mM Tris-HCl pH 7.5, 50 mM NaCl, 50 mM KCl, 50 mM NH4Cl, 11.4 mM EDTA, 12% glycerol, 30 C, 30 min, ~1 nM 32P-RNA, Kd in Hfq6; anisotropy: 10 mM Tris-HCl; conditions: protein: recombinant; tags: untagged; chain copies: 6; label: 32P
EcCc Hfq [3] = target: T2, EcCc Hfq (Escherichia coli / Caulobacter …, UniProt P0A6X3 1-67+B8GW92:71-82, internal_change); test: EMSA; Hill n 8.7; EMSA: 34 mM Tris-HCl pH 7.5, 50 mM NaCl, 50 mM KCl, 50 mM NH4Cl, 11.4 mM EDTA, 12% glycerol, 30 C, 30 min, ~1 nM 32P-RNA, Kd in Hfq6; anisotropy: 10 mM Tris-HCl; conditions: protein: recombinant; tags: untagged; chain copies: 6; label: 32P; stem-loops
Cc78 [4] = target: T3, Cc78 (Caulobacter crescentus NA1000, UniProt B8GW92 1-78, del79-82); test: EMSA; Hill n 2.5; EMSA: 34 mM Tris-HCl pH 7.5, 50 mM NaCl, 50 mM KCl, 50 mM NH4Cl, 11.4 mM EDTA, 12% glycerol, 30 C, 30 min, ~1 nM 32P-RNA, Kd in Hfq6; anisotropy: 10 mM Tris-HCl; conditions: protein: recombinant; tags: untagged after self-cleaved intein; chain copies: 6; label: 32P; stem-loops
T3 sequence: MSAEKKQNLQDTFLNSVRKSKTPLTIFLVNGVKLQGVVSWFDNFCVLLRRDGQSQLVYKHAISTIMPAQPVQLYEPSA

Ec65 [5] = target: T4, Ec65 (Escherichia coli, UniProt P0A6X3 1-65, del66-102); test: EMSA; Hill n 2.4; EMSA: 34 mM Tris-HCl pH 7.5, 50 mM NaCl, 50 mM KCl, 50 mM NH4Cl, 11.4 mM EDTA, 12% glycerol, 30 C, 30 min, ~1 nM 32P-RNA, Kd in Hfq6; anisotropy: 10 mM Tris-HCl; conditions: protein: recombinant; tags: untagged; chain copies: 6; label: 32P; stem-loops
Ec Hfq (Hfq102) [6] = target: T1, Ec Hfq (Hfq102); test: EMSA; Hill n 11.9; EMSA: 34 mM Tris-HCl pH 7.5, 50 mM NaCl, 50 mM KCl, 50 mM NH4Cl, 11.4 mM EDTA, 12% glycerol, 30 C, 30 min, ~1 nM 32P-RNA, Kd in Hfq6; anisotropy: 10 mM Tris-HCl; conditions: protein: recombinant; tags: untagged; chain copies: 6; label: 32P; stem-loops
EcCc Hfq [7] = target: T2, EcCc Hfq; test: EMSA; Hill n 30.2; EMSA: 34 mM Tris-HCl pH 7.5, 50 mM NaCl, 50 mM KCl, 50 mM NH4Cl, 11.4 mM EDTA, 12% glycerol, 30 C, 30 min, ~1 nM 32P-RNA, Kd in Hfq6; anisotropy: 10 mM Tris-HCl; conditions: protein: recombinant; tags: untagged; chain copies: 6; label: 32P; stem-loops
Ec65 [8] = target: T4, Ec65; test: EMSA; Hill n 1.0; EMSA: 34 mM Tris-HCl pH 7.5, 50 mM NaCl, 50 mM KCl, 50 mM NH4Cl, 11.4 mM EDTA, 12% glycerol, 30 C, 30 min, ~1 nM 32P-RNA, Kd in Hfq6; anisotropy: 10 mM Tris-HCl; conditions: protein: recombinant; tags: untagged; chain copies: 6; label: 32P; stem-loops
Ec Hfq (Hfq102) [9] = target: T1, Ec Hfq (Hfq102); test: EMSA; Hill n 10.1; EMSA: 34 mM Tris-HCl pH 7.5, 50 mM NaCl, 50 mM KCl, 50 mM NH4Cl, 11.4 mM EDTA, 12% glycerol, 30 C, 30 min, ~1 nM 32P-RNA, Kd in Hfq6; anisotropy: 10 mM Tris-HCl; conditions: protein: recombinant; tags: untagged; chain copies: 6; label: 32P; stem-loops
Cc78 [10] = target: T3, Cc78; test: EMSA; Hill n 3.5; EMSA: 34 mM Tris-HCl pH 7.5, 50 mM NaCl, 50 mM KCl, 50 mM NH4Cl, 11.4 mM EDTA, 12% glycerol, 30 C, 30 min, ~1 nM 32P-RNA, Kd in Hfq6; anisotropy: 10 mM Tris-HCl; conditions: protein: recombinant; tags: untagged after self-cleaved intein; chain copies: 6; label: 32P; stem-loops
Ec Hfq (Hfq102) [11] = target: T1, Ec Hfq (Hfq102); test: EMSA; Hill n 4.4; EMSA: 34 mM Tris-HCl pH 7.5, 50 mM NaCl, 50 mM KCl, 50 mM NH4Cl, 11.4 mM EDTA, 12% glycerol, 30 C, 30 min, ~1 nM 32P-RNA, Kd in Hfq6; anisotropy: 10 mM Tris-HCl; conditions: protein: recombinant; tags: untagged; chain copies: 6; label: 32P
EcCc Hfq [12] = target: T2, EcCc Hfq; test: EMSA; Hill n 4.5; EMSA: 34 mM Tris-HCl pH 7.5, 50 mM NaCl, 50 mM KCl, 50 mM NH4Cl, 11.4 mM EDTA, 12% glycerol, 30 C, 30 min, ~1 nM 32P-RNA, Kd in Hfq6; anisotropy: 10 mM Tris-HCl; conditions: protein: recombinant; tags: untagged; chain copies: 6; label: 32P; stem-loops
Cc78 [13] = target: T3, Cc78; test: EMSA; Hill n 5.5; EMSA: 34 mM Tris-HCl pH 7.5, 50 mM NaCl, 50 mM KCl, 50 mM NH4Cl, 11.4 mM EDTA, 12% glycerol, 30 C, 30 min, ~1 nM 32P-RNA, Kd in Hfq6; anisotropy: 10 mM Tris-HCl; conditions: protein: recombinant; tags: untagged after self-cleaved intein; chain copies: 6; label: 32P; stem-loops
Ec65 [14] = target: T4, Ec65; test: EMSA; Hill n 3.1; EMSA: 34 mM Tris-HCl pH 7.5, 50 mM NaCl, 50 mM KCl, 50 mM NH4Cl, 11.4 mM EDTA, 12% glycerol, 30 C, 30 min, ~1 nM 32P-RNA, Kd in Hfq6; anisotropy: 10 mM Tris-HCl; conditions: protein: recombinant; tags: untagged; chain copies: 6; label: 32P; stem-loops
Ec Hfq (Hfq102) [15] = target: T1, Ec Hfq (Hfq102); test: EMSA; Hill n 4.1; EMSA: 34 mM Tris-HCl pH 7.5, 50 mM NaCl, 50 mM KCl, 50 mM NH4Cl, 11.4 mM EDTA, 12% glycerol, 30 C, 30 min, ~1 nM 32P-RNA, Kd in Hfq6; anisotropy: 10 mM Tris-HCl; conditions: protein: recombinant; tags: untagged; chain copies: 6; label: 32P; stem-loops
Cc78 [16] = target: T3, Cc78; test: EMSA; Hill n 1.2; EMSA: 34 mM Tris-HCl pH 7.5, 50 mM NaCl, 50 mM KCl, 50 mM NH4Cl, 11.4 mM EDTA, 12% glycerol, 30 C, 30 min, ~1 nM 32P-RNA, Kd in Hfq6; anisotropy: 10 mM Tris-HCl; conditions: protein: recombinant; tags: untagged after self-cleaved intein; chain copies: 6; label: 32P; stem-loops
Ec65 [17] = target: T4, Ec65; test: EMSA; Hill n 1.7; EMSA: 34 mM Tris-HCl pH 7.5, 50 mM NaCl, 50 mM KCl, 50 mM NH4Cl, 11.4 mM EDTA, 12% glycerol, 30 C, 30 min, ~1 nM 32P-RNA, Kd in Hfq6; anisotropy: 10 mM Tris-HCl; conditions: protein: recombinant; tags: untagged; chain copies: 6; label: 32P; stem-loops
EcCc Hfq [18] = target: T2, EcCc Hfq; test: EMSA; Hill n 1.8; EMSA: 34 mM Tris-HCl pH 7.5, 50 mM NaCl, 50 mM KCl, 50 mM NH4Cl, 11.4 mM EDTA, 12% glycerol, 30 C, 30 min, ~1 nM 32P-RNA, Kd in Hfq6; anisotropy: 10 mM Tris-HCl; conditions: protein: recombinant; tags: untagged; chain copies: 6; label: 32P; stem-loops
Ec Hfq (Hfq102) [19] = target: T1, Ec Hfq (Hfq102); test: EMSA; Hill n 1; Tris-glycine gel; EMSA: 34 mM Tris-HCl pH 7.5, 50 mM NaCl, 50 mM KCl, 50 mM NH4Cl, 11.4 mM EDTA, 12% glycerol, 30 C, 30 min, ~1 nM 32P-RNA, Kd in Hfq6; anisotropy: 10 mM Tris-HCl; conditions: protein: recombinant; tags: untagged; chain copies: 6; label: 32P; stem-loops
Cc78 [20] = target: T3, Cc78; test: EMSA; Hill n 1.6; EMSA: 34 mM Tris-HCl pH 7.5, 50 mM NaCl, 50 mM KCl, 50 mM NH4Cl, 11.4 mM EDTA, 12% glycerol, 30 C, 30 min, ~1 nM 32P-RNA, Kd in Hfq6; anisotropy: 10 mM Tris-HCl; conditions: protein: recombinant; tags: untagged after self-cleaved intein; chain copies: 6; label: 32P; folded
EcCc Hfq [21] = target: T2, EcCc Hfq; test: EMSA; Hill n 1.0; EMSA: 34 mM Tris-HCl pH 7.5, 50 mM NaCl, 50 mM KCl, 50 mM NH4Cl, 11.4 mM EDTA, 12% glycerol, 30 C, 30 min, ~1 nM 32P-RNA, Kd in Hfq6; anisotropy: 10 mM Tris-HCl; conditions: protein: recombinant; tags: untagged; chain copies: 6; label: 32P; folded
Ec Hfq (Hfq102) [22] = target: T1, Ec Hfq (Hfq102); test: EMSA; Hill n 13; EMSA: 34 mM Tris-HCl pH 7.5, 50 mM NaCl, 50 mM KCl, 50 mM NH4Cl, 11.4 mM EDTA, 12% glycerol, 30 C, 30 min, ~1 nM 32P-RNA, Kd in Hfq6; anisotropy: 10 mM Tris-HCl; conditions: protein: recombinant; tags: untagged; chain copies: 6; label: 32P; folded
Ec65 [23] = target: T4, Ec65; test: EMSA; Hill n 3.7; EMSA: 34 mM Tris-HCl pH 7.5, 50 mM NaCl, 50 mM KCl, 50 mM NH4Cl, 11.4 mM EDTA, 12% glycerol, 30 C, 30 min, ~1 nM 32P-RNA, Kd in Hfq6; anisotropy: 10 mM Tris-HCl; conditions: protein: recombinant; tags: untagged; chain copies: 6; label: 32P; folded

- stoichiometry N [1]: 6
Molecule: Caulobacter crescentus Hfq (natural protein)

B1: cfa (structured_RNA)
RNA: GGUUGUUAAAGCUACGAUAAAUAUUAUGUUUUUACGGGGACAGGAUCGUUCCCGACUCACUAUGGAUAGUCAUUUCGGCAAGGGUUCCUCCUUUCCCUCUGUUCUACGUCGGAUUAUAGACUCGCGGUUUUUUCUGCGAGAUUUCUCACAAAGCCCAAAAAGCGUCUACGCUGUUUUAAGGUUCUGAUCACCGACCAGUGAUGGAGAAACUAUGAGUUCAUCGUGUAUAGAAGAAGUCAGUGUACCGGAUGACAAC
- Kd (Ec Hfq (Hfq102) [2]): 19 ± 0.5 nM

B2: DsrA (structured_RNA)
RNA: GGGAACACAUCAGAUUUCCUGGUGUAACGAAUUUUUUAAGUGCUUCUUGCUUAAGCAAGUUUCAUCCCGACCCCCUCAGGGUCGGGAUUUUUUU
- Kd (EcCc Hfq [3]): 42.5 ± 1 nM
- Kd (Cc78 [4]): 62.2 ± 4.4 nM
- Kd (Ec65 [5]): 12.6 ± 1.9 nM
- Kd (Ec Hfq (Hfq102) [6]): 21.1 ± 0.3 nM

B3: ChiX (structured_RNA)
RNA: GGGACACCGUCGCUUAAAGUGACGGCAUAAUAAUAAAAAAAUGAAAUUCCUCUUUGACGGGCCAAUAGCGAUAUUGGCCAUUUUUUU
- Kd (EcCc Hfq [7]): 35.8 ± 0.4 nM
- Kd (Ec65 [8]): 95 ± 27 nM
- Kd (Ec Hfq (Hfq102) [9]): 20.3 ± 0.4 nM
- Kd (Cc78 [10]): 32.4 ± 0.4 nM

B4: hns (structured_RNA)
RNA: GAACAAACCACCCCAAUAUAAGUUUGAGAUUACUACAAUGAGCGAAGCACUUAAAAUUCUGAACAACAUCCGUACUCUUCGUGCGCAGGCAAGAGAAUGUACACUUGAAACGCUGGAAGAA
- Kd (Ec Hfq (Hfq102) [11]): 19.7 ± 0.4 nM

B5: RybB (structured_RNA)
RNA: GGCCACUGCUUUUCUUUGAUGUCCCCAUUUUGUGGAGCCCAUCAACCCCGCCAUUUCGGUUCAAGGUUGAUGGGUUUUUU
- Kd (EcCc Hfq [12]): 37.3 ± 6.2 nM
- Kd (Cc78 [13]): 68.1 ± 1.9 nM
- Kd (Ec65 [14]): 27.1 ± 0.9 nM
- Kd (Ec Hfq (Hfq102) [15]): 21.5 ± 2 nM

B6: R133 (structured_RNA)
RNA: GGAGCCCUUUCGGGCGUUUCCUCCCAAUGACUCGGCCGCCCUCUUCUCCUGGAGGGCGGCCGUUCUUUU
- Kd (Cc78 [16]): 242 ± 17 nM
- Kd (Ec65 [17]): 21.6 ± 1.3 nM
- Kd (EcCc Hfq [18]): 232 ± 46 nM
- Kd (Ec Hfq (Hfq102) [19]): 14.7 ± 1.3 nM

B7: RydC (structured_RNA)
RNA: GGCUUCCGAUGUAGACCCGUAUUCUUCGCCUGUACCACGGGUCGGUUUUAGUACAGGCGUUUUCUU
- Kd (Cc78 [20]): 167 ± 11 nM
- Kd (EcCc Hfq [21]): 237 ± 34 nM
- Kd (Ec Hfq (Hfq102) [22]): 22.1 ± 0.2 nM
- Kd (Ec65 [23]): 12.3 ± 0.4 nM
